Each block holds one binder with its values, some of them ahead of it.
Tests used:
[1] = target: human T-cell immune response cDNA 7 (TIRC7) protein (human, UniProt Q13488 1-830); assay: cell-based or functional assay
[2] = target: T1, peptide 6 (TIRC7 derived peptide DLPDASVNGWSSDE); assay: method not stated
T1 construct: Fragment of TIRC7, used coated on ELISA plates at 100 ng peptide/well; also called Peptid6
T1 peptide: DLPDASVNGWSSDE

Chain of human T-cell immune response cDNA 7 (TIRC7) protein (Q13488 whole entry): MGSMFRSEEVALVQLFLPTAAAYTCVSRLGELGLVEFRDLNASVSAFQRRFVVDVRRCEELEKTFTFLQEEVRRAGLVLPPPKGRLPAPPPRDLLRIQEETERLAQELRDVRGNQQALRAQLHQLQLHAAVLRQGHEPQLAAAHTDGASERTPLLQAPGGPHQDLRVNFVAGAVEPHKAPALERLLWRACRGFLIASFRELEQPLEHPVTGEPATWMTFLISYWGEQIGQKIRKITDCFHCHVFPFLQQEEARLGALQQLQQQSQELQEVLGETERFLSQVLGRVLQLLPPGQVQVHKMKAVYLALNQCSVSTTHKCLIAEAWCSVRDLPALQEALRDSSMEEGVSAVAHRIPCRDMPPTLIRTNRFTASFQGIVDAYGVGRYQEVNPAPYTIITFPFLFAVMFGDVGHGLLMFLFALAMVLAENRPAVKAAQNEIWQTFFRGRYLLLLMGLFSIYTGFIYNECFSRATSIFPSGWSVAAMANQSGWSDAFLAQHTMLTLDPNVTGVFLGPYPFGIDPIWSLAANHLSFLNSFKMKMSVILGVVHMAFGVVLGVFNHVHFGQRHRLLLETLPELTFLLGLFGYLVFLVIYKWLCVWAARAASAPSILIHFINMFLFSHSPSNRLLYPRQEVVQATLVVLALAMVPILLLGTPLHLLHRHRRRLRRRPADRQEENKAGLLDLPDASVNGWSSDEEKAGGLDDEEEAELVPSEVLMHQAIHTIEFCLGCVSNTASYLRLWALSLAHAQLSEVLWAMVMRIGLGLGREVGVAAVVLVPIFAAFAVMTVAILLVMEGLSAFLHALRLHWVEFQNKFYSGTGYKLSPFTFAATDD

Inhibition of cytokine secretion (IFNγ) calculated relative to the isotype control at the same concentration, PHA-stimulated human PBMC, 10 µg/ml murine Neliximab [1]: 78% | Inhibition of cytokine secretion (IFNγ) calculated relative to the isotype control at the same concentration, PHA-stimulated human PBMC, 50 µg/ml murine Neliximab [1]: 39% | Inhibition of cytokine secretion (IFNγ) calculated relative to the isotype control at the same concentration, PHA-stimulated human PBMC, 100 µg/ml murine Neliximab [1]: 20% | Inhibition of cytokine secretion (IFNγ) calculated relative to the isotype control at the same concentration, PHA-stimulated human PBMC, 200 µg/ml murine Neliximab [1]: 3% | Kd [2]: 1 nM
B1: murine Neliximab (murine anti-human TIRC7 monoclonal antibody, clone #17) (antibody, V domains shown)
VH: EVQLQQSGPELVKPGASVKMSCKASGYTFTTYVMHWVKQKPGQGLEWIGYINPYNDGTNYNEKFKGKATLTSDKSSSTAYMELSTLTSEDSAVYYCAEFITKTVGGSNWYLDVWGAGTTVTVSS
VL: QIVLTQSPAIMSASPGEKVTMTCSASSSISYIHWFQQKPGTSPKRWIYDTSKLPSGVPARFSGSGSGTSYSLTISSMEAEDAATYYCHQRSSYTWTFGGGTKLEIKR
notes: also called murine anti-human TIRC7 mAb; murine mAb

Kd [2]: 1 nM
B2: Neliximab (chimeric murine/human anti-human TIRC7 monoclonal antibody) (antibody, V domains shown)
VH: B1 VH
VL: QIVLTQSPAIMSASPGEKVTMTCSASSSISYIHWFQQKPGTSPKRWIYDTSKLPSGVPARFSGSGSGTSYSLTISSMEAEDAATYYCHQRSSYTWTFGGGTKLEIK
notes: also called chimeric Neliximab; chimeric anti-human TIRC7 mAb

Reference: patent publication US20060251646A1 (CELLACT PHARMA, published 2006)
